Literature values in publication PMC4893024.

Target: Cys39 (UniProt position 39, TSPYECGFDPM)
Experiment: not stated (the cited study [29] is described as SH-reagent sensitivity/labelling of bovine heart SMP with N-ethylmaleimide and N-fluorescein maleimide)
Settings: Deactive (D) form of complex I, with Cys-39 exposed

## NADH-ubiquinone oxidoreductase chain 3 (ND3 subunit of mitochondrial complex I) (Bos taurus)
  pKa: 10.2
